# According to patent publication US11407811B2, “Fusion protein, preparation method therefor and use thereof” (JIANGSU RONGTAI BIOTECH CO., LTD., priority 2017, dated 2022):
# Key:
# [1] = system: choroidal blood flow in rabbit eyes; assay: Choroidal blood flow in rabbit eyes (color microsphere technique); type: in vivo; conditions: 128 μg intravitreal injection; for Blood flow: rabbit eyes with high intraocular pressure
# Experimental: New Zealand white rabbits with weight of 2.5-3.0 kg were randomly divided into […], which were labeled as a control group, and fusion protein I, protein II, protein III, protein IV, and protein V groups. White rabbits in each group were anesthetized with 35 mg/kg xylazine via intramuscular injection, and then anesthesia was maintained with half of the initial amount via intramuscular injection per hour. The intraocular pressure of the left eye was increased to 40 mmHg, under which the blood flow can be reduced to ⅓ of the normal value. The left ventricle was cannulated through right carotid artery for injection of microspheres (for the calculation of ocular blood flow), and the femoral artery was cannulated for blood collection. Each group was given physiological saline, 128 μg of fusion protein I, 128 μg of protein II, 128 μg of protein III, 128 μg of protein IV, and 128 μg of protein V via intravitreal injection. The ocular blood flow of rabbit eyes with high intraocular pressure was measured by a color microsphere technique at 0, 30, and 60 minutes after administration. At each time point, 0.2 mL (about 2 million) of microspheres were injected. Immediately after the microspheres were injected, blood was collected through the femoral artery for 60 seconds, and placed in a heparinized anticoagulant tube, and the amount of blood collected was recorded. After the last blood collection, the animals were sacrificed with 100 mg/kg phenobarbital via intravenous infusion. The eyeballs were removed, and the retina, choroid, iris and ciliary body were separated, and the tissue weight was recorded. The tissue blood flow at each time point was calculated with the following formula: Qm=(Cm×Qr)/Cr, where Qm represented tissue blood flow in μL/min/mg; Cm was the number of microspheres per milligram of tissue; Qr was blood flow in μL/min; and Cr was the number of blood microspheres as a reference.
# [2] = system: iris neovascularization in rabbits; assay: Iris neovascularization in rabbits; type: in vivo, rabbit; conditions: 128 μg, intravitreal injection once every 5 days for 2 weeks
# Experimental: The argon ion laser at 577 nm was used to occlude the major branch vein of rabbit retina, and a success venous occlusion was confirmed by fundus fluorescein angiography (FFA).
# 9 eyes successful in modeling were randomly divided into […]. They were labeled as a negative control group, and fusion protein I, protein II, protein III, protein IV and protein V treatment groups, respectively, which were respectively given physiological saline, 128 μg of fusion protein I, 128 μg of protein II, 128 μg of protein III, 128 μg of protein IV and 128 μg of protein V via intravitreal injection once every 5 days for 2 weeks. The observation was performed with an optical and electron microscope on the third week.
# [3] = system: peritoneal capillary permeability in mice; assay: Peritoneal capillary permeability in mice (HAc, Evans blue); type: in vivo; conditions: for Exudation rate (OD590) / PI (%): mice
# Experimental: The drug was administered once by injection (EDSM needed to be administered twice a day), and the blank model group was given an equal volume of physiological saline and fed normally. On the 5th day, a 5 g/L Evans blue physiological saline solution was injected into the tail vein at […], followed by intraperitoneal injection ([…]) of a HAc solution (6 mL/L) to induce inflammation. After 20 min, the mice were sacrificed by cervical dislocation. 5 mL of physiological saline was intraperitoneally injected, the abdomen was gently rubbed for 2 min, the abdominal cavity was cut, a peritoneal washing solution was collected and centrifuged at 4000 rpm for 10 min, 1 mL of supernatant was taken, and 3 mL of physiological saline was added to obtain 4 mL of dilution. The absorbance OD value of the dilution was measured by an ultraviolet spectrophotometer at a wavelength of 590 nm, and the amount of pigment exudation was expressed by the OD590 nm value, and the peritoneal capillary permeability in mice was examined.
# [4] = system: human glioma U87; assay: MTT assay, proliferation of human glioma U87; type: cell-based
# Experimental: The MTT assay was used to detect the inhibitory effect of the integrin blocker fusion protein obtained in Example 1 on the proliferation of various tumor cells, including melanoma cell B16F10, gastric cancer cell MGC-803, lung cancer cell A549, liver cancer cell Hep-G2, breast cancer cell MDA-MB-231, colon cancer cell HCT-116, human glioma U87, and cervical cancer cell Hela.
# The tumor cells were cultured in a 5% CO2 incubator at 37° C. to a density of 90% or more, and collected by trypsinization. The cells were resuspended in the culture liquid and counted under a microscope. The cell concentration was adjusted to 3.0×10^4 cells/mL. The cell suspension was inoculated into a 96-well plate at 100 μL per well and cultured overnight in a 5% CO2 incubator at 37° C. […] After the cells were fully adhered, each dilution was added to a 96-well plate at 100 μL per well, respectively. […] 20 μL of 5 mg/mL MTT was added to each well of a 96-well plate, and incubation was continued for 4 hours. The medium was aspirated and 100 μL of DMSO per well were added to dissolve. The absorbance was measured at 570 nm with a microplate reader with a reference wavelength of 630 nm, and the proliferation inhibition (PI) was calculated. The formula is as follows: […]
# where Ntest is the OD value of the test group and Ncontrol is the OD value of the blank control group.
# The test was repeated 5 times independently. The results obtained from the test were calculated as mean±SD, and statistical t-test was performed. P<0.05 was considered as a significant difference, and P<0.01 was considered as an extremely significant difference.
molecule,measurement,setting,value
Protein II: IgG2-Fc linked to antiangiogenesis polypeptide EDSM-Y via a flexible linker; SEQ ID NO: 17 (protein) ERKCCVECPPCPAPPVAGPSVFLFPPKPKDTLMISRTPEVTCVVVDVSHEDPEVQFNWYVDGVEVHNAKTKPREEQFNSTFRVVSVLTVVHQDWLNGKEYKCKVSNKGLPAPIEKTISKTKGQPREPQVYTLPPSREEMTKNQVSLTCLVKGFYPSDISVEWESNGQPENNYKTTPPMLDSDGSFFLYSKLTVDKSRWQQGNVFSCSVMHEALHNHYTQKSLSLSPGKGGGGSGGGGSGGGGSFQPVLHLVALNSPLSGGMRGIRGADFQCFQQARAVGLAGTFRAGGGGRGD,Blood flow,[1]; 0 min after administration,22.9 ± 2.5 µL/min/mg
same,Blood flow,[1]; 30 min after administration,15.7 ± 1.3 µL/min/mg
same,Blood flow,[1]; 60 min after administration,13.9 ± 1.2 µL/min/mg
same,choroidal blood flow,[1]; all observation time points,significantly increased
same,effect on iris neovascularization,[2],could inhibit neovascularization and regress the formed blood vessels
same,inhibition of the increase of peritoneal capillary permeability induced by glacial acetic acid,[3]; in words,could significantly inhibit the increase of peritoneal capillary permeability
same,Exudation rate (OD590),[3]; dose 8 mg/kg,0.51 ± 0.06
same,PI (%),[3]; dose 8 mg/kg,26.09%
same,Exudation rate (OD590),[3]; dose 32 mg/kg,0.34 ± 0.03
same,PI (%),[3]; dose 32 mg/kg,50.72%
same,Exudation rate (OD590),[3]; dose 128 mg/kg,0.32 ± 0.07
same,PI (%),[3]; dose 128 mg/kg,53.62%
same,A570 nm/A630 nm,[4]; dose 1 μg/mL,0.6788 ± 0.0374
same,PI (%),[4]; dose 1 μg/mL,3.01%
same,A570 nm/A630 nm,[4]; dose 2 μg/mL,0.6523 ± 0.0405
same,PI (%),[4]; dose 2 μg/mL,6.80%
same,A570 nm/A630 nm,[4]; dose 4 μg/mL,0.6021 ± 0.0233
same,PI (%),[4]; dose 4 μg/mL,13.97%
same,A570 nm/A630 nm,[4]; dose 8 μg/mL,0.5423 ± 0.0357
same,PI (%),[4]; dose 8 μg/mL,22.52%
same,A570 nm/A630 nm,[4]; dose 16 μg/mL,0.5006 ± 0.0282
same,PI (%),[4]; dose 16 μg/mL,28.48%
same,A570 nm/A630 nm,[4]; dose 32 μg/mL,0.4652 ± 0.0249
same,PI (%),[4]; dose 32 μg/mL,33.53%
same,A570 nm/A630 nm,[4]; dose 64 μg/mL,0.4080 ± 0.0366
same,PI (%),[4]; dose 64 μg/mL,41.71%
same,PI (%),"[4]; dose 64 μg/mL, listed as protein II",about 50%
same,A570 nm/A630 nm,[4]; dose 128 μg/mL,0.3143 ± 0.0279
same,PI (%),[4]; dose 128 μg/mL,55.09%
same,A570 nm/A630 nm,[4]; dose 256 μg/mL,0.2222 ± 0.0316
same,PI (%),[4]; dose 256 μg/mL,68.25%
